# Results reported in patent US8642729B2, “Opiorphin peptide derivatives as potent inhibitors of enkephalin-degrading ectopeptidases” (Institut Pasteur, priority 2008, dated 2014).
# Non-standard residues stand in square brackets, D forms with d. No end group written: not given here. 12Ado = NCCCCCCCCCCCC(=O)O; Ahx = NCCCCCC(=O)O
# How the values were obtained:
# [1] = target: T1, membrane-bound human NEP expressed by LNCaP epithelial cells (Homo sapiens, UniProt P08473); assay: Substance P cleavage by membrane-bound hNEP (human cell membranes); type: biochemical; conditions: fold increase, same test
# T1 construct: endogenous in cells; host or cells: LNCaP epithelial cells (membranes)
# T1 sequence (P08473 whole entry): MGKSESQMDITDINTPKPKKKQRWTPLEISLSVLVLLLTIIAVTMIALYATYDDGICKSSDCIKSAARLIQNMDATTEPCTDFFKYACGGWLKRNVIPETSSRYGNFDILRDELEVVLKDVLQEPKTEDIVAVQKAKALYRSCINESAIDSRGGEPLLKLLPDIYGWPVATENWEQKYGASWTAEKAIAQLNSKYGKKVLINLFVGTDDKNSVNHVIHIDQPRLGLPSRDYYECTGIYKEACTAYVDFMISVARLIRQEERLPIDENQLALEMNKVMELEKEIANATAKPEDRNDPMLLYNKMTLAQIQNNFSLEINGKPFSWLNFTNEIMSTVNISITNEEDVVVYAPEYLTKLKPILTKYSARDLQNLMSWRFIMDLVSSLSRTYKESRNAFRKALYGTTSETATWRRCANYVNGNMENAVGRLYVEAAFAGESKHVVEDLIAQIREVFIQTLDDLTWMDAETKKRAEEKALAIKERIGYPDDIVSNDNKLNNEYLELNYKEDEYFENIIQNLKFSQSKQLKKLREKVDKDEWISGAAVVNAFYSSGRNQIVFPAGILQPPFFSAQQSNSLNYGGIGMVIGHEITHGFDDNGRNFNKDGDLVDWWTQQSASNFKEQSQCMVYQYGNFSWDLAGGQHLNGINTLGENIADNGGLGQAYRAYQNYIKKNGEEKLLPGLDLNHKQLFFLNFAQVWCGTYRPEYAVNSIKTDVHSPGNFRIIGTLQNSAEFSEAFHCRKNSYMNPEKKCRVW
# recombinant human AP-N = target: T2, recombinant human AP-N (Homo sapiens, UniProt P15144); assay: AP-N-ectopeptidase activity, Ala-Mca substrate; type: biochemical; conditions: for inhibitory potency towards hAP-N as compared to Opiorphin-QRFSR native peptide (in words): relative to native peptide
# T2 construct: devoid of their respective N-terminal cytosol and transmembrane segment; purchased R&D Systems
# T2 sequence (P15144 33-967 limits assumed): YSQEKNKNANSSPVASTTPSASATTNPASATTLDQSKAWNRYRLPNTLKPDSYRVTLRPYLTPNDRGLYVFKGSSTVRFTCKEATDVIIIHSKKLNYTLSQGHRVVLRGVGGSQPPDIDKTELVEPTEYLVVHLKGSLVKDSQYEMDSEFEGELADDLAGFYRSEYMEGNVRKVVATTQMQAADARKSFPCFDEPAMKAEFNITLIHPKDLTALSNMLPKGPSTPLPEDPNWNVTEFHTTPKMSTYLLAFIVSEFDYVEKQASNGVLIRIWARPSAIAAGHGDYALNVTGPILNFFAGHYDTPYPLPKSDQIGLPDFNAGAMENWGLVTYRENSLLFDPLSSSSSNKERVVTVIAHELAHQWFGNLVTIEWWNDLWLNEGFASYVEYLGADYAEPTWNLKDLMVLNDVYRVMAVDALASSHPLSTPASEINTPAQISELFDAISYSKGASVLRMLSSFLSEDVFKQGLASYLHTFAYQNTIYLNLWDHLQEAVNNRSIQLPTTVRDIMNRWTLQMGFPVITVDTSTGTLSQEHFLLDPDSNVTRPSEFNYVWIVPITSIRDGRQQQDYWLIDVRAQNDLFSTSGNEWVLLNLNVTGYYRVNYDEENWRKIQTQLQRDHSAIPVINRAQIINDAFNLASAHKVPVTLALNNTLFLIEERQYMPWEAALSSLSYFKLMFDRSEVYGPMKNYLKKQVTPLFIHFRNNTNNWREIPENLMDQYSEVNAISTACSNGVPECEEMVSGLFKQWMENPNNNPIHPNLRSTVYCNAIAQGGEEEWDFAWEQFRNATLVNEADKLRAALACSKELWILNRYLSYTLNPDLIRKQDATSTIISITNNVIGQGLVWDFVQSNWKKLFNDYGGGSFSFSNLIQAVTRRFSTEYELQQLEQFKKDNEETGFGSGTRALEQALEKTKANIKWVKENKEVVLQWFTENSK
# Procedure: Formal kinetic analysis was performed for each assay using real-time fluorescence monitoring of specific substrate hydrolysis.
# Recombinant human NEP and recombinant human AP-N (devoid of their respective N-terminal cytosol and transmembrane segment) that were purchased from R&D Systems, were used as pure source of peptidase.
# FRET is the distance-dependant transfer of energy from a donor fluorophore (Abz=ortho-aminobenzoyl or Mca=7-methoxycoumarin-4-yl-acetyl) to an acceptor fluorophore (DnpOH=2,4-dinitrophenyl or EDDnp=2,4-dinitrophenyl ethylenediamine). • L-alanine-Mca, Ala-Mca, a fluorogenic substrate for measuring aminopeptidase activity was purchased from Sigma.
# (§1) According to conditions of initial velocity measurement: the time, pH and temperature of incubation as well as enzyme and substrate concentrations were defined for each assay. Hydrolysis of substrates was measured by real-time monitoring their metabolism rate by the two peptidases in the presence and absence of tested inhibitory compound (concentrations ranging from 1 to 50 μM). These were added to the preincubation medium. The background rate of substrate autolysis representing the fluorescent signal obtained in the absence of enzyme was subtracted to calculate the initial velocities in RFU (Relative Fluorescent Unit)/min.
# Measurement of AP-N-Ectopeptidase Activity Using Ala-Mca Substrate.
# Using black half-area 96 well microplate the standard reaction consisted of enzyme (4 ng) in 100 mM Tris-HCl pH 7.0 (100 μl final volume).
# (§2) Compounds were tested in triplicate at 50 μM final concentration.
# human NEP = target: T3, human NEP (Homo sapiens, UniProt P08473); assay: Screening of Opiorphin peptide-derivatives on hNEP (endopeptidase and carboxydipeptidase activities); type: biochemical; conditions: for inhibitory preference / dual inhibition, human NEP versus human AP-N (in words): hNEP endopeptidase and carboxydipeptidase activities versus hAP-N; for inhibitory potency towards human NEP (in words): screening, 50 μM final concentration; for inhibitory potency towards hNEP as compared to Opiorphin-QRFSR native peptide (in words): relative to native peptide
# T3 construct: devoid of their respective N-terminal cytosol and transmembrane segment; purchased R&D Systems
# T3 sequence (P08473 52-750 limits assumed): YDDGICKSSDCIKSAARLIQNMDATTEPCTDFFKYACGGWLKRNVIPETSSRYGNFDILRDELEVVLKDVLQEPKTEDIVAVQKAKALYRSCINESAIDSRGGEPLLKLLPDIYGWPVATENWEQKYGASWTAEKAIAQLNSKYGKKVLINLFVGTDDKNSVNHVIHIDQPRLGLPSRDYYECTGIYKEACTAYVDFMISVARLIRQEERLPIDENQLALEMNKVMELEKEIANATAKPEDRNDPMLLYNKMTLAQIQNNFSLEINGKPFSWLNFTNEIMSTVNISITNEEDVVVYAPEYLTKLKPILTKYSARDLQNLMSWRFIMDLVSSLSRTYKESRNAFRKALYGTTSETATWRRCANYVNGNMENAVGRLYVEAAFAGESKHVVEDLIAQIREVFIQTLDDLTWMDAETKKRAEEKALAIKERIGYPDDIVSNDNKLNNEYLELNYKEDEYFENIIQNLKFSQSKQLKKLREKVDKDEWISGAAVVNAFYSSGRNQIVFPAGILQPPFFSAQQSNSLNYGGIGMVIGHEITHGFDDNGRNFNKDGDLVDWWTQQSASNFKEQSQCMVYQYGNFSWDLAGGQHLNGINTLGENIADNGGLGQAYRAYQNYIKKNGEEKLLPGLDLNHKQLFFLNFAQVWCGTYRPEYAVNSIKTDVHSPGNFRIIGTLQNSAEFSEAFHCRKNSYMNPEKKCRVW
# Procedure: as §1
# ([…] successive measures) by using a fluorimeter microplate reader (monochromator Infinite 200-Tecan) at 320 nm and 420 nm excitation and emission wavelengths, respectively.
# Using black half-area 96 well microplate, the standard reaction consisted of enzyme (2.5 ng) in 100 mM Tris-HCl pH 6.5 containing 50 mM NaCl (100 μl final volume). The substrate (4 μM final concentration) was added after preincubation for 10 min and the kinetics of appearance of the fluorescent signal (RFU) was directly analyzed for 40 min at 28° C. (2.3 min-interval successive measures) by using the fluorimeter reader at 320 nm excitation and 420 nm emission wavelengths.
# In addition, the intramolecularly quenched fluorogenic peptide, Mca-BK2 (10 μM), was submitted to hydrolysis by 5 ng rhNEP under the same experimental conditions as those described behind.
# as §2
# [2] = target: Recombinant human NEP (neutral endopeptidase, EC 3.4.24.11), devoid of its N-terminal cytosol and … (human, UniProt P08473 52-750); assay: cell-based or functional assay
# Chain of Recombinant human NEP (neutral endopeptidase, EC 3.4.24.11), devoid of its N-terminal cytosol and … (P08473 52-750): as the sequence (P08473 52-750 limits assumed) above
# [3] = target: T4, Recombinant human AP-N (aminopeptidase N, EC 3.4.11.2), devoid of its N-terminal cytosol and transmembrane … (human, UniProt P15144 33-967); assay: cell-based or functional assay
# T4 sequence (P15144 33-967): as the sequence (P15144 33-967 limits assumed) above
# [4] = target: T4, Recombinant human AP-N (aminopeptidase …); assay: cell-based or functional assay; remark: listed apart in the source
molecule,measurement,setting,value
"CCCCCCCC(=O)OC[C@H](NC(=O)[C@H](Cc1ccccc1)NC(=O)[C@H](CCCNC(=N)N)NC(=O)[C@H](CCC(N)=O)NC(=O)CCCCCCNC(=O)[C@@H](N)CS)C(=O)N[C@@H](CCCNC(=N)N)C(=O)O [C-[PE6]-QRFS[O-C8]R, C—(—HN—(CH2)6—CO—)-QRF—S(O-octanoyl)-R]","increase inhibitory potency compared to Opiorphin native peptide, Substance P test",[1],at least 5 fold
dR-dS-dF-dR-dQ ([dR][dS][dF][dR][dQ]) [NH2-dRdSdFdRdQ-COOH],inhibitory potency towards human AP-N (in words),"recombinant human AP-N; screening, 50 μM final concentration",did not display significant inhibitory activity
same,"inhibitory preference / dual inhibition, human NEP versus human AP-N (in words)",human NEP,preference for AP-N activity
same,inhibitory potency towards human NEP (in words),human NEP,did not display significant inhibitory activity
QRFPR,inhibitory potency towards hAP-N as compared to Opiorphin-QRFSR native peptide (in words),recombinant human AP-N,equivalent inhibitory potency
same,"inhibitory preference / dual inhibition, human NEP versus human AP-N (in words)",human NEP,inhibitory preference for human AP-N
same,inhibitory potency towards hNEP as compared to Opiorphin-QRFSR native peptide (in words),human NEP,weak inhibitory potency
same,inhibitory potency towards human NEP (in words),human NEP,weak inhibitory potency
QRFSK (H-QRFSK-OH),inhibitory potency towards hNEP as compared to Opiorphin-QRFSR native peptide (in words),human NEP,equivalent inhibitory potency
N=C(N)NCCC[C@H](NC(=O)[C@H](CO)NC(=O)[C@H](Cc1ccccc1)NC(=O)[C@H](CCCNC(=N)N)NC(=O)[C@H](CCC(N)=O)NC(=O)[C@@H](N)CSSC[C@H](N)C(=O)N[C@@H](CCC(N)=O)C(=O)N[C@@H](CCCNC(=N)N)C(=O)N[C@@H](Cc1ccccc1)C(=O)N[C@@H](CO)C(=O)N[C@@H](CCCNC(=N)N)C(=O)O)C(=O)O [[CQRFSR]2],increase inhibitory potency towards hNEP-Endo and CarboxyDi-peptidase activities compared to CQRFSR monomer peptide,human NEP; fold increase,at least 2 fold
QKFSR,inhibitory potency towards hNEP as compared to Opiorphin-QRFSR native peptide (in words),human NEP,light reduction in inhibitory potency
"N=C(N)NCCC[C@H](NC(=O)[C@H](CO)NC(=O)[C@H](Cc1ccccc1)NC(=O)[C@H](CCCNC(=N)N)NC(=O)[C@H](CCC(N)=O)NC(=O)CCCCCCCCCCCCNC(=O)[C@@H](N)Cc1ccc(O)cc1)C(=O)O [Y-[PE12]QRFSR, Y—(—HN—(CH2)12—CO—)-QRFSR]","inhibitory preference / dual inhibition, human NEP versus human AP-N (in words)",human NEP; listed as NH2-Y(PE12)QRFSR—COOH,potent dual inhibitors
same,"inhibitory preference / dual inhibition, human NEP versus human AP-N (in words)",human NEP; listed as NH2-Y—(C12-polyethylene)QRFSR—COOH,inhibitory preference for human NEP endopeptidase activity
same,"inhibitory preference / dual inhibition, human NEP versus human AP-N (in words)",human NEP; listed as Y—(C12-polyethylene)QRFSR,inhibitory preference for human NEP endopeptidase activity
QHNPR,inhibitory potency towards hAP-N as compared to Opiorphin-QRFSR native peptide (in words),recombinant human AP-N,equivalent inhibitory potency
same,"inhibitory preference / dual inhibition, human NEP versus human AP-N (in words)",human NEP,inhibitory preference for human AP-N
same,inhibitory potency towards hNEP as compared to Opiorphin-QRFSR native peptide (in words),human NEP,weak inhibitory potency
same,inhibitory potency towards human NEP (in words),human NEP,weak inhibitory potency
QRGPR (H-QRGPR-OH),inhibitory potency towards hAP-N as compared to Opiorphin-QRFSR native peptide (in words),recombinant human AP-N,equivalent inhibitory potency
same,"inhibitory preference / dual inhibition, human NEP versus human AP-N (in words)",human NEP,inhibitory preference for human AP-N
same,inhibitory potency towards hNEP as compared to Opiorphin-QRFSR native peptide (in words),human NEP,weak inhibitory potency
same,inhibitory potency towards human NEP (in words),human NEP,weak inhibitory potency
N=C(N)NCCC[C@H](NC(=O)[C@H](CO)NC(=O)[C@H](Cc1ccccc1)NC(=O)[C@H](CCCNC(=N)N)NC(=O)[C@H](CCC(N)=O)NC(=O)[C@@H](N)CS)C(=O)O [CQRFSR],reinforced inhibitory potency towards hNEP compared to QRFSR native peptide,human NEP; fold increase,5 fold
same,"inhibitory preference / dual inhibition, human NEP versus human AP-N (in words)",human NEP,potent dual inhibitors
H-C[Ahx]QRFSR-OH [NH2-C-(C6-polyethylene)QRFSR-COOH],"IC50, µM towards hNEP-Endopeptidase (Abz-dR-G-L-EDDnp cleavage)",[2],40 µM
same,"IC50, µM towards hAP-N (Ala-AMC cleavage)",[3],0.8 µM
H-C[12Ado]QRFSR-OH [NH2-C-(C12-polyethylene)QRFSR-COOH],"IC50, µM towards hAP-N (Ala-AMC cleavage)",[3],0.8 µM
H-QKFSR-OH [NH2-QKFSR-COOH],fold decrease in inhibitory potency compared to Opiorphin-QRFSR native peptide,[4],> 10 fold
H-QRFSK-OH [NH2-QRFSK-COOH],fold decrease in inhibitory potency compared to Opiorphin-QRFSR native peptide,[4],10 fold
